PMC5594493, “Antiproliferative factor (APF) binds specifically to sites within the cytoskeleton-associated protein 4 (CKAP4) extracellular domain” (BMC Biochemistry, 2017)

Tests used:
CKAP4_(361–524) = CKAP4_(361–524) (UniProt Q07065); test: SPR; CKAP4 deletion mutant amine-coupled on Fc2 of a CM5 chip (352, 585, 1914 RU), Fc1 blank reference; multi-cycle kinetics with as-APF 2.5–40 μM, 30 μl/min, 2 min association, 3 min dissociation; 25 °C, PBS with 0.01% Tween-20; heterogeneous ligand, 1:1 or two-state fit
CKAP4_(127–360) [1] = biological target: T1, CKAP4_(127–360) (UniProt Q07065 127-360); test: as above
T1 chain: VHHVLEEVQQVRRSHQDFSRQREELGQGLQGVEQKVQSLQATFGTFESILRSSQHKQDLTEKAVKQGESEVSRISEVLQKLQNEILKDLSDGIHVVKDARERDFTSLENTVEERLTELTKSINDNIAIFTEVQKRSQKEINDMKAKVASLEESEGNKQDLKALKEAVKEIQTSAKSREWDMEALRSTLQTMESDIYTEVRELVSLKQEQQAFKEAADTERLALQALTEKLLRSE

CKAP4_(525–602) = CKAP4_(525–602) (UniProt Q07065); test: as above
CKAP4_525–602 = biological target: T2, CKAP4_525–602 (Homo sapiens, UniProt Q07065); test: SPR binding kinetics, CKAP4_525–602 immobilized on CM5; settings: CM5 amine-coupling
T2 construct: amino acids 106–602, 127–360, 361–524, and 525–602 regions were generated by PCR and subcloned into the pET-15b bacterial expression vector; His-tag; made in house; host or cells: E. coli BL21(DE3)pLysS
T2 sequence (Q07065 525-602): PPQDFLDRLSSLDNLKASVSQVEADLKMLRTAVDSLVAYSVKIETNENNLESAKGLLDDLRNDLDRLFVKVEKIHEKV
Experimental: (§1) All SPR experiments were performed on a Biacore X-100 instrument (GE Healthcare) with the chip surface at 25 °C using PBS containing 0.01% Tween-20 as running buffer. CKAP4 recombinant proteins were immobilized individually either by Ni^2+/nitrilotriacetic acid (NTA) chelation on Sensor Chip NTA or by amine-coupling on Sensor Chip CM5, on the Fc2 channel. For amine-coupling, the sensor surface on both flow cells was activated for 7 min with a 1:1 mixture of 0.1 M EDC (1-ethyl-3-(3-dimethylaminopropyl) carbodiimide hydrochloride) and 0.1 M NHS (N-hydroxysuccinimide) at a flow rate of 5 μl/min. Immobilization of CKAP4 proteins (on Fc2) was performed in 10 mM sodium acetate buffer, at either pH 4.5, 5.0, or 5.5 based on preliminary pH scouting runs, for optimal binding. […] The data were analyzed using Biacore Evaluation software V2.0. […]
(§2) To assess the as-APF binding activity of the purified CKAP4 deletion mutants, each protein was separately immobilized on a CM5 sensor chip through amine coupling, and SPR responses against APF control peptide and various as-APF concentrations were observed. We used this reverse approach to assess as-APF binding kinetics because the concentration of as-APF synthetic peptide could be calculated more accurately than the purified CKAP4 deletion mutants, which vary in amino acid composition. […]

CKAP4_127–360 = biological target: T3, CKAP4_127–360 (Homo sapiens, UniProt Q07065); test: SPR binding kinetics, CKAP4_127–360 immobilized on CM5; settings: CM5 amine-coupling
T3 construct: amino acids 106–602, 127–360, 361–524, and 525–602 regions were generated by PCR and subcloned into the pET-15b bacterial expression vector; His-tag; made in house; host or cells: E. coli BL21(DE3)pLysS
T3 sequence (Q07065 127-360): T1 chain
Experimental: as §1, §2

CKAP4_361–524 = biological target: T4, CKAP4_361–524 (Homo sapiens, UniProt Q07065); test: SPR binding kinetics, CKAP4_361–524 immobilized on CM5; settings: CM5 amine-coupling
T4 construct: amino acids 106–602, 127–360, 361–524, and 525–602 regions were generated by PCR and subcloned into the pET-15b bacterial expression vector; His-tag; made in house; host or cells: E. coli BL21(DE3)pLysS
T4 sequence (Q07065 361-524): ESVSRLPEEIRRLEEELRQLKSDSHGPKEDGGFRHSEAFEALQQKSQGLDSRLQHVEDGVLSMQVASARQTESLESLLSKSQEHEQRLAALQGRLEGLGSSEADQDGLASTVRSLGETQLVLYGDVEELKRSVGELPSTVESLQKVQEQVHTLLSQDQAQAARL
Experimental: as §1, §2

CKAP4 = test: SPR binding to CKAP4 recombinant proteins (overall statements); settings: comparison of as-APF, APF and control peptide
Experimental: as §1, with “binding. Unreacted NHS groups were quenched with a 7 min injection of 1 M ethanolamine pH 8.5. The Fc1 channel was treated similarly but without CKAP4 and served as a reference. Upon stabilization of the baseline signal, multi-cycle kinetics assays were performed with injections of as-APF as analyte at various concentrations (2.5–40 μM) in running buffer at 30 μl/min for 2 min, immediately followed by a 3 min dissociation phase.” for “binding.”

CKAP4_(127–360) [2] = biological target: T1, CKAP4_(127–360); test: SPR; heterogeneous ligand fit, KD1

as-APF (asialo APF, Galβ1−3GalNAcα-O-…) (peptide)
Kd (CKAP4_(361–524)): 2.3 µM
stoichiometry N (CKAP4_(361–524)): 1
KD1 (heterogeneous ligand fit) (CKAP4_(127–360) [1]): 4.61 µM
KD2 (heterogeneous ligand fit) (CKAP4_(127–360) [1]): 0.66 nM
stoichiometry N (CKAP4_(127–360) [1]): 7.1
Kd (CKAP4_(525–602)): 197 µM
stoichiometry N (CKAP4_(525–602)): 1.5

TVPAAVVVA [APF control peptide]
specific binding (CKAP4_525–602): no specific binding was detected
specific binding (CKAP4_127–360): no specific binding was detected
specific binding (CKAP4_361–524): no specific binding was detected
binding to CKAP4 (in words) (CKAP4): no binding response

TVPAAVVVA (Galβ1−3GalNAcα-O- disaccharide on the N-terminal threonine) [as-APF (asialo APF, Galβ1−3GalNAcα-O-TVPAAVVVA)]
Kd (CKAP4_(127–360) [2]): 4.6 µM
